{
  "source": "paper PMC11764342",
  "about": "“A Novel Nitrite Reductase from Acinetobacter haemolyticus for Efficient Degradation of Nitrite” (Biomolecules, 2025)",
  "proteins": {"B1": {"name": "AhNiR (Acinetobacter haemolyticus CIP 64.3 = MTCC 9819) (protein)", "chain": "MYLYTDFDQQLINQRVAQFRDQTERYLAGKLTEDEYRPLRLQNGLYVQRYAPMLRIAVPYGLMNTKQLRKIAEIATEYDRGYAHVSTRQNIQLNWPALEDVPDILEELATVQMHAVQTSGNCIRNTTTDQFAGVVAGEIADPRPTCELIRQWSTFHPEFAFLPRKFKIAVSALAETDRAATAFHDIGVYIVRNEAGEIGYKIMAGGGLGRTPIIGSVIRDFLPREDLIAYLEATLRVYNLHGRRDNKYKARIKILVKALTPEVFAQKVEAEFEHTREALKIQPEILKKLDEEFTPFDYQDLEDQDFTALFAEYPKFKQWFNVNTNAHKVKGYRIVTISLKRAGIAPGDMTSEEMNLIADLADKYTFGEFRTTHEQNISLVDVPQKDLFELWQTLEQNDMARAHIGFITDIICCPGGDFCSLANAKSIPISEAITRRFEDLDTIYNLGELDLNISGCMNACGHHHVGNIGILGVDKKGAEFYQITLGGNADHDASIGDILGPSFAADAVPDVIEEILNTYLDLRTEGERFIDTYRRVGIQPFKERAYA", "notes": "whole gene in pET28a (BamHI/XhoI), N-terminal His tag, E. coli BL21(DE3), Ni-NTA; predicted 61929 Da"}},
  "substrate": "O=NO",
  "experiment": "purified protein",
  "assay_type": "biochemical, Acinetobacter haemolyticus",
  "details": "dithionite-reduced methyl viologen as electron donor, 30 °C, optimum pH (printed as 7.5 in abstract, 7 in results; assay PBS pH 7.0), NaNO2 0.51-2.17 mmol/L",
  "data": [
    {"protein": "B1", "values": [
      {"measurement": "Km", "value": 1530, "unit": "µM"}
    ]}
  ]
}
